Consider 30 sequences from the nanobody polyreactivity screen of Harvey et al. (2022).

A short description of the data set: yeast display, Sf9 membrane polyspecificity reagent, FACS + sequencing; frameworks hold sequencing errors. The procedure, abridged:
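Nanobodies came from a synthetic yeast display library in Saccharomyces cerevisiae BJ5465, induced with galactose for 36–48 hours and stained for 1 hour at 4 °C with 10% biotinylated, detergent-solubilized Sf9 membrane reagent. Cells were enriched on streptavidin microbeads and then FACS-sorted, with low and high (top ~1%) gates set on anti-HA fluorescence for expression and streptavidin fluorescence for reagent binding. Each polyreactivity label reflects the gate a clone came from. Genes were amplified by colony PCR, sequenced by MiSeq 2 × 250 and filtered by CDR length.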
Turning to “QVQLVESGGGLVQAGGSLRLSCAASGFIFYRYAMGWYRQAPGKEREFVAAISRSGGSTYYADSVKGRFTISRDNAKNTVYLQKNSLKPEDTAVYYCNTYQHGYYVAEYDYWGQGTQVTVSS”, the “polyreactivity (PSR sort gate)” value is listed as “high polyreactivity”.

As for “QVQLVESGGGLVQAGGSLRLSCAASGFIFYRYAMGWYRQAPGKERELVAAIRGGGSTYYADSVKGRFTISRDNAKTTVYLQMNSLKPEDTAVYYCNAVYGVRPNRYHYDYWGQGTQVTVSS”, the “polyreactivity (PSR sort gate)” value was “low polyreactivity”.

Regarding “QVQLVESGGGLVQAGGSLRLSCAASGFIFYRYAMGWYRQAPGKERELVSAISYRGGSTYYADSVKGRFTISRDNAKNTVYLQMNSLKPEDTAVYYCAASLRYYGLEMDYWGQGTQVTVSS”, the “polyreactivity (PSR sort gate)” value is on record as “high polyreactivity”.

Regarding “QVQLVESGGGLVQAGGSLRLSCAASGFIFYRYAMGWYRQAPGKESELVAAISWGGGSTTYYADSVKGRFTISRDNAKNTVYLQMNSLKPEDTAVYYCAAYIVKGYGSEYYYWGQGTQVTVSS”, the “polyreactivity (PSR sort gate)” value was “low polyreactivity”.

Consider “QVQLVESGGGLVQAGGSLRLSCAASGFIFYRYAMGWYRQAPGNERELVAAISRSGGSTYYADSVKGRFTISRDNAKNTVYLQMNSLKPEDTAVYYCATPGQRKLYLVNYLGQGTQVTVSS”, for which the “polyreactivity (PSR sort gate)” value is listed as “low polyreactivity”.

For “QVQLVESGGGLVQAGGSLRLSCAASGFIFYRYAMVWYRQAPGKEREFVARISANGGRTYYADSVKGRFTISRDNAKNTVYLQMNSLKPEDTAVYYCNAGRYATPYNYWGQGTQVTVSS”, the “polyreactivity (PSR sort gate)” value is reported as “high polyreactivity”.

As to “QVQLVESGGGLVQAGGSLRLSCAASGFIFYRYTMGWSRQAPGKERELVAGSSSRGTRTYYADSVKGRFTISRDNAKNTVYLQMNSLKPEDTAVYYCAKVDGSKRYNYWGQGTQVTVSS”, the “polyreactivity (PSR sort gate)” value is “high polyreactivity”.

For “QVQLVESGGGLVQAGGSLRLSCAASGFIFYRYTMGWYRQAPGKERELVASISSGGSTNYADSVKGRFTISRDNAKNTVYLQMNSLKPEDTAVYYCAASRFRWVQRYDYWGQGTQVTVSS”, the “polyreactivity (PSR sort gate)” value is on record as “high polyreactivity”.

Consider “QVQLVESGGGLVQAGGSLRLSCAASGFIFYSNAMGWYRQEPGKERELLADINRGGTSTYYADSVKGRFTISRDNAKNTVYLQMNSLKPEDTAVYYCNAGLRYRSRLWNIYWYDYWGQGTQVTVSS”, for which the “polyreactivity (PSR sort gate)” value is on record as “high polyreactivity”.

Turning to “QVQLVESGGGLVQAGGSLRLSCAASGFIFYSYAMGWYRQAPGKERELVAAISSSGRTNYADSVKGRFTISRDNAKNTVYLQMNSLKPEDTAVYYCNVVRWHGYRVGRYDYWGQGSQVTVSS”, the “polyreactivity (PSR sort gate)” value is on record as “high polyreactivity”.

With “QVQLVESGGGLVQAGGSLRLSCAASGFIFYSYDMGWYRQAPGKERELVAAIDSRGVNTYFADSVKGRFTISRDNAKNTVYLQMNSLKPEDTAVYYCNVDAITWWDWEDFDSWGQGTQVTVSS”, the “polyreactivity (PSR sort gate)” value is listed as “low polyreactivity”.

For the sequence “QVQLVESGGGLVQAGGSLRLSCAASGFIFYTNAMAWYRQAPGNERQLVATLTTSGGRTYYADSVKGRFTISRDNAKNSVYLQMNSLKPEDTAVYYCATRYVVIEYDYWGQGTEVTVSS”, the “polyreactivity (PSR sort gate)” value is listed as “low polyreactivity”.

Take “QVQLVESGGGLVQAGGSLRLSCAASGFIFYTYAMGWYRQAPGKERELVAGINSGGDTNYADSVKGRFTISRDNAKNTVYLQINSLKPEDTAVYYCAATSYVHKYYGYFGAIKYEYWGHGTQVTVSS”: the “polyreactivity (PSR sort gate)” value is reported as “low polyreactivity”.

In the case of “QVQLVESGGGLVQAGGSLRLSCAASGFIFYYAMGWYRQAPGKERELVAAISSGSSTYADSVKGRFTISRDNAKNTVYLQMNSLKPEDTAVYYCATRYSSWYSNRDYDYWGQGTQVTVSS”, the “polyreactivity (PSR sort gate)” value is “low polyreactivity”.

For the sequence “QVQLVESGGGLVQAGGSLRLSCAASGFIFYYYAMGWYRQAPGKERELVAAITGSGGNTYYADSVKGRFTISRDYAKNTVYFQMNSLKPEDTAFYYCNTGYDWGGDYWGQGTQVTVSS”, the “polyreactivity (PSR sort gate)” value was “high polyreactivity”.

As for “QVQLVESGGGLVQAGGSLRLSCAASGFIFYYYAMGWYSQAPGKERELVARISRGGSTYYADSVKGRFTISRDNAKNTVYLQMNSLKPEDTAVYYCAKVSIARIKTRYNYWGQGTQVTVSS”, the “polyreactivity (PSR sort gate)” value is “high polyreactivity”.

In the case of “QVQLVESGGGLVQAGGSLRLSCAASGFIFYYYDMGWYRQAPGKERELVAAISFDGDSTYYADSVKGRFTISRDNAKNTVYLQMNSLKPEDTAVYYCAARDYRYRYGYWGQGTQVTVSS”, the “polyreactivity (PSR sort gate)” value is “high polyreactivity”.

For the sequence “QVQLVESGGGLVQAGGSLRLSCAASGFIIDPNAMGWYSQAPGKERDLVAAISSSGGRTYYADSVKGRFTISRDNAKNTVYFQLNSLKPEDTAVYYCATDTSVQGQEYDYWGKGTQVTVSS”, the “polyreactivity (PSR sort gate)” value was “low polyreactivity”.

“QVQLVESGGGLVQAGGSLRLSCAASGFIIGYYAMGWYRQAPGKERELVASIRRGGSTYYADSVKGRFTISRDNAKNTVYLQMNSLKPEDTAVYYCAVPYSRFSAFRRWVKYDYWGQGTQVTVSS”: the “polyreactivity (PSR sort gate)” value was “high polyreactivity”.

Regarding “QVQLVESGGGLVQAGGSLRLSCAASGFIIIGYVMGWYRQAPGKERELVAAITSSGGSTYYEDSVKGRFTISRDNAKNTVYLQMNSLKPEDTAVYYCAAEYYLLWSGMEYWGQGTQVTVSS”, the “polyreactivity (PSR sort gate)” value was “low polyreactivity”.

Regarding “QVQLVESGGGLVQAGGSLRLSCAASGFIIIGYVMGWYRQAPGNERELVAAITSSGSGTYYADSVKGRVTISRDNAKNTVYLQMNSLKPEDTAVYYSAAQVRYGTATYHVSSYHYTRYGYWGQATQVTVSS”, the “polyreactivity (PSR sort gate)” value was “low polyreactivity”.

In the case of “QVQLVESGGGLVQAGGSLRLSCAASGFIIKYYAMGWYRQAPGKERELVAAISSGGRTYYADSVKGRFTISRDNAKNTVYLQMNSLKPEDTAVYYCAKTFRKSYDWGQGTQVTVSS”, the “polyreactivity (PSR sort gate)” value is reported as “high polyreactivity”.

Consider “QVQLVESGGGLVQAGGSLRLSCAASGFIINKYTMGWYRQAPGKERELVAAITWSGGTTYYADSVKGRFTISRDNAKNTVYLQMNSLKPEDTALYYCAAYYYRGRVCAYDYWGQGTQVTVSS”, for which the “polyreactivity (PSR sort gate)” value is given as “high polyreactivity”.

Regarding “QVQLVESGGGLVQAGGSLRLSCAASGFIIRYYTMGWSRQAPGKERELVAVITSGGTTYYADSVKGRFTISRDNAKNTVYLQMNSLKPEDTAVYYCAADYRPRLDGVGVDYWGQGTQVTVSS”, the “polyreactivity (PSR sort gate)” value is “low polyreactivity”.

“QVQLVESGGGLVQAGGSLRLSCAASGFIISGNAMGWYRQAPGKERELVASISRSGGSTYYADSVKGRFTISRDNAKNTVYLQMNSLKPEDTAVYYCNARYYAIGQFNYWGQGTQVTVSS”: the “polyreactivity (PSR sort gate)” value was “low polyreactivity”.

In the case of “QVQLVESGGGLVQAGGSLRLSCAASGFIISPYAMGWYRQAPGKERELVAAISWSGVSTYYADSVKGRFTISRDNAKNTVYLQMNSLKPEDTAVYYCATYRTVYYWGQGTQVTVSS”, the “polyreactivity (PSR sort gate)” value is “high polyreactivity”.

Turning to “QVQLVESGGGLVQAGGSLRLSCAASGFILAYYAMGWYRQAPGKERELVAAISIGSSTDYADSVKGRFTISRDNAKNTVYLQMNSLKPEDTAVYYCAATYVYWTWGYDYWGQGTQVTVSS”, the “polyreactivity (PSR sort gate)” value is “low polyreactivity”.

For the sequence “QVQLVESGGGLVQAGGSLRLSCAASGFILAYYEMGWYRQAPGKERELVAAISIGSSTDYADSVKGRFTISRDNAKNTVYLQMNSLKPEDTAVYYCAARDYYYEYDYWGQGTQVTVSS”, the “polyreactivity (PSR sort gate)” value is given as “low polyreactivity”.

Turning to “QVQLVESGGGLVQAGGSLRLSCAASGFILDRYAMGWYRQAPGKERELVASITSGGSTNYADSVKGRFTISRDNAKNTVYLQMNSLIPEDTAVYYCAAYPWRYWNHEYNYWGQGTQVTVSS”, the “polyreactivity (PSR sort gate)” value is “high polyreactivity”.

Consider “QVQLVESGGGLVQAGGSLRLSCAASGFILDYNAMGWYRQAPGKERELVAAITSGGSTNYADSVKGRFTISRDNAKNTVYLQMNSLKPEDTAVYYCNVRSVSPVHDDGSWGQGTQVTVSS”, for which the “polyreactivity (PSR sort gate)” value is on record as “low polyreactivity”.
